Test results: the supplement of paper PMC12042874
± gives the uncertainty stated by the source.

Experiment: amyloid nucleation score (Sup35N fusion, yeast selection) (log enrichment); library NNK2; higher = more nucleation; inactive = no reads after selection
How it was run: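 Psi-negative yeast expressed Sup35N fused to peptides of 20 random codons. They were induced 24 hours with 100 μM copper sulfate, grown 7 days at 30°C without adenine and uracil, and their plasmid inserts from input and output were Illumina-sequenced. The nucleation score is the DiMSum log enrichment of output over input reads, centred on the mode score of non-aggregating sequences. Sequences with under 100 input reads were excluded.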

Row | Substance | amyloid nucleation score
1 | FFGVSWRWARNFCYDMGQVY | -0.177 ± 1
2 | FFISALANR | inactive
3 | FFLDYRENISAMLPTTR | -0.833 ± 1.1
4 | FFLGANGINALQNRSYIQPG | 0.007 ± 0.79
5 | FFLGDRIWL | inactive
6 | FFLWVGTYSVVPGLCVYMS | 3.78 ± 0.11
7 | FFLYFVFCF | 2.67 ± 0.085
8 | FFNLNQLMFKELSMRLGHRY | 0.066 ± 0.74
9 | FFRCVLITPD | 0.179 ± 0.53
10 | FFRVQINEGDQGYQSQYF | inactive
11 | FFSVPGAWCDKWALALANY | -0.564 ± 0.38
12 | FFTANPV | 0.335 ± 0.64
13 | FFTVDRDFLYFPDFSKRVVM | -0.569 ± 0.79
14 | FFVSGLFANF | 1.73 ± 0.2
15 | FGFFTTYSELAVQVIQSAVT | -0.032 ± 1.1
16 | FGIFEQMMFLHNVCSDFTAS | -0.447 ± 1.1
17 | FGIMNMKYGYTCMMSSSKSS | -1.43 ± 1.1
18 | FGKCYYLFVSYHYMLGLACT | -0.549 ± 1
19 | FGLTACH | -0.579 ± 0.54
20 | FGSAFTNGSVRNYVDGVQVI | 0.648 ± 0.74
21 | FGTILGSLVLVIWI | inactive
22 | FGWGINRVYLVNM | 5.04 ± 0.088

Row | Substance | amyloid nucleation score
23 | FHFKLRGWPGRGVTSMGS | -0.873 ± 0.62
24 | FHLFSVGTEGTPRRRKFAGD | -0.481 ± 0.78
25 | FHPVFGMFWRTSNERSGLFQ | -1.03 ± 0.48
26 | FHRRMFLCAVWLLRLTIVRQ | 0.492 ± 0.39
27 | FHSLRQLFMNTGVL | inactive
28 | FIAFVYNL | 1.95 ± 0.091
29 | FIDRMKMLWGLKSWDFQCHW | 0.362 ± 0.45
30 | FIFDR | -0.257 ± 0.54
31 | FIINKHSFQRGLFMVSLVSI | inactive
32 | FIKMAITDRCGMAYS | -0.752 ± 0.53
33 | FILGSESNLRVSMRLFGSNW | 5.019 ± 0.03
34 | FIWTYSYRDVWVLRVAVWLQ | 0.283 ± 0.23
35 | FKAYHSGKWTYGHITQRGRI | inactive
36 | FKCPFSNFFAMDGYY | -0.801 ± 0.55
37 | FKHLLSMVIVECFIVIVILC | -0.041 ± 0.5
38 | FKQYFSYLVGLYRS | 0.472 ± 0.8
39 | FKSIDISAFSSSSHTGSYLG | 0.578 ± 0.81
40 | FKSQIDSECMFYLLG | -0.018 ± 0.17
41 | FLCMFMFESWYDHNAVAVSY | 0.66 ± 0.57
42 | FLCRLLGSGRSHHIRVC | 0.15 ± 0.22
43 | FLDMSSRIMRARRPNCFFWC | -0.022 ± 0.31
44 | FLFLCGTDTFASRNPGRGKG | 0.269 ± 0.51

Row | Substance | amyloid nucleation score
45 | FLFLTTVSPRWTYRCTRFLG | 4.64 ± 0.055
46 | FLGDWKTCKVTGACKLCYGG | -0.018 ± 0.42
47 | FLHVSRDLPYYYCFLV | -0.703 ± 0.74
48 | FLIEFLWSMSACSAPVFLVF | -1.41 ± 1.1
49 | FLIFTTLLYCMVDMHAGTTF | -1.77 ± 0.78
50 | FLIINYRSCRGINFIYARFY | inactive
51 | FLILAHLGIKNYNWV | 3.885 ± 0.037
52 | FLITCQLESTLYQW | -0.334 ± 0.64
53 | FLMACPMFIIVYLCRT | inactive
54 | FLNYVGDGIIEI | -0.835 ± 0.48
55 | FLPNFSNVLFSLHPASKSGE | -0.218 ± 0.48
56 | FLPYFNPEVSGIFCVNRMST | -0.971 ± 0.53
57 | FLQNWKLYRCCLRVASVGGR | 4.67 ± 0.11
58 | FLRFLVCLG | -0.22 ± 1.1
59 | FLSGVFIMRFHLNY | inactive
60 | FLSRWSFPHGEFLLIRTLAG | -0.574 ± 0.3
61 | FLSSYVFLCWCSLVSWGGTW | 1.03 ± 0.66
62 | FLSYYFGPFRELVF | -0.287 ± 0.56
63 | FLTNGESGTMGI | inactive
64 | FLVLVTFKFRAQTDFLSSWN | -0.884 ± 0.78
65 | FLVYWTMLVVYGYCVFGWIN | -1.3 ± 0.78
66 | FMDIHRKMGTHVFLRKCFRI | -0.771 ± 1.1

Row | Substance | amyloid nucleation score
67 | FMFPILDSVTPIFDIVITGD | inactive
68 | FMGTLNRELYTGRYGVG | -0.243 ± 1
69 | FMMHRVSTRFASKNAS | -0.072 ± 1.1
70 | FMQICNFIC | 8.012 ± 0.07
71 | FMSLTSMLCNLRTNSCMCAR | -0.014 ± 0.21
72 | FMVVC | 0.249 ± 0.39
73 | FMYRDLYRFMYCVVCAQFFH | 4.95 ± 0.05
74 | FNAERFLQSIEMVWWDKGFL | -1.53 ± 0.41
75 | FNFGNDGYSFNIILWYQRYI | 6.61 ± 0.063
76 | FNGVLDWEWHGVAFAWAGLV | 0.399 ± 0.65
77 | FNIVQHVASCGWLTYTWSAA | -0.018 ± 1.1
78 | FNLMLI | inactive
79 | FNLYYSRGLSSCLSYSRLEV | -0.532 ± 1
80 | FNNLFIRTADQEVTILDVTH | -0.031 ± 1
81 | FNRVLVPRIKNTWILYCYFI | inactive
82 | FNVNRLAVLSYVSSWSGVIM | -0.772 ± 0.35
83 | FNYDIPPVVQGCHISAQLLP | -0.271 ± 0.74
84 | FNYGCFVLDSDHVAGKGILI | inactive
85 | FNYPSLFTF | -1.01 ± 1.1
86 | FPKIQSKFSRDIFSDGNEYE | inactive
